Measured values reported in a protein production outcome set (Wang et al. 2014).

assay: label from the status in PepcDB records
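Note: failed if final PepcDB status was selected cloned or expressed and not failed if soluble or beyond.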

Sequence | protein production
MIQMDGGDRLRVTLLDRMSTVESSRSCLTLEAILMADKNRTSPQILSPPPSRSQSNRSLVEVMQREHRHSRDKTAWKSLREKLRLKRNGSVWISSNSIPSLDTPIPNRDNVSHQLGFLLSNSGNVTEEASSVEGRIRLGAVLAEERALSAREEETPAEREVEPARMSLMELLEENEGQMSFVSVDGEAEEEVAAVTAAEISCCVCMVRSKGAAFIPCGHTFCRLCSRELWVQRGNCPLCNTTILEVLDLF | failed
MIQMVKRVHIFDWHKEHARKIEEFAGWEMPIWYSSIKEEHLAVRNAVGIFDVSHMGEIVFRGKDALKFLQYVTTNDISKPPAISGTYTLVLNERGAIKDETLVFNMGNNEYLMICDSDAFEKLYAWFTYLKRTIEQFTKLDLEIELKTYDIAMFAVQGPKARDLAKDLFGIDINEMWWFQARWVELDGIKMLLSRSGYTGENGFEVYIEDANPYHPDESKRGEPEKALHVWERILEEGKKYGIKPCGLGARDTLRLEAGYTLYGNETKELQLLSTDIDEVTPLQANLEFAIYWDKDFIGKDALLKQKERGVGRKLVHFKMIDKGIPREGYKVYANGEMIGEVTSGTLSPLLNVGIGIAFVKEEYAKPGIEIEVEIRGQRKKAVTVTPPFYDPKKYGLFRET | not failed
MIQVPASFDIQGHRGCRGLLPENTIAAFTKALLLGVTTLEFDLVISKDNRVVVSHDTFFHHEITMMVDGEDVTEANEKNFNLYAMNYADIKEIDVGMKTHPRFKSQKKVPAVKPLFRELIETAEKLSAKIQYNGEIKSTVEGDNIDHPNIALFCDLVVAEIKKAHITDRFTLQSFDVRALEYMHSQYPDIKLSYLVETKGTLKKQLEKLSFTPAVYSPDVTLVSKKDIDAAHKLGMRVIPWTVNTKEEIETLISLGVDGIITDYPDLFFEK | not failed
MIREFFQKYFIDPIKYNTGYNPVNTLVYAIILGIATLLVYKVLKRLKIEINNAFFRALIPYMIFGAFTRALTDAGVFPRTYLTVSPGIYFLVFVIAFSALLVSHKFAKDWRGVFLWFGWGLVMVDLAAMSANISKINFDFAVLKYFIPFLILAELVVFLLSKKVSLVRENSYLFYAHFYDATTTFVGVDFMGYWEQHVLPRLLIGLTGTAAVMYVLKFIILFAAVWLLKELEKEGEEKELLDFIKMVIFILGFAPGTRNLLRMLMGV | failed
MIRFYMSLSVVKHTILYLCFIFLLLYLKKRYPDNVIIGFFLKIRWCFINSMLHLHFIAIWIAGYRNRCSNSSWNFGYFGCCVETQAKVGRTATNLLLTES | failed
MIRIKTPSEIEKMKKAGKAVAVALREVRKVIVPGKTAWDVETLVLEIFKKLRVKPAFKGYGGYKYATCVSVNEEVVHGLPLKEKVFKEGDIVSVDVGAVYQGLYGDAAVTYIVGETDERGKELVRVTREVLEKAIKMIKPGIRLGDVSHCIQETVESVGFNVIRDYVGHGVGRELHEDPQIPNYGTPGTGVVLRKGMTLAIEPMVSEGDWRVVVKEDGWTAVTVDGSRCAHFEHTILITENGAEILTKEG | not failed
MIRKYRYGAPFDTEALTEKIETAEEAFPYGEISQKEGFAFTYIMDEDDIVYGLGESNRGINKRGYCYISNCTDDPIHTEDKRSLYGAHNFIIVSGKTTFGLFFDYPSKLTFDIGYTRMDTLKVSCENADLDIYVIEGENAYDIVKQFRRVIGRSYIPPKFAFGFGQSRWGYTTKEDFRAVAKGYRENHIPIDMIYMDIDYMQDFKDFTVNEKNFPDFPEFVKEMKDQELRLIPIIDAGVKVEKGYEVYEEGVKNNYFCKREDGSDFVAAVWPGDTHFPDMLNPEARKWFGDKYRFLIDQGIEGFWNDMNEPAIFYSSEGLAEAKEFAGEFAKDTEGKIHPWAMQAKMKDIVNSPEDYKRFYHNVNGKKIRHDKVHNLFGYNMTRAAGEAFERIDPEKRFLMFSRSSYIGMHRYGGIWMGDNKSWWSHILLNLKMLPSLNMCGFMYTGADLGGFGDDTTRDLLLRFLALGVFTPLMRDHAAEGTREQECYQFENIEDFRSVINARYRLVPYLYSEYMKAALNDDMYFKPLGFVYPDDKMAIRVEDQLMLGNEIMIAPVYEQNARGRYVYLPEEMKFIKFMPDGSISEEVLEKGVHYVDVALNEVPLFIRSGKCIPVAEAAECVKDIDTENMQLIGYEGSSYTLYEDDGIHKDYDKKENYRVLTK | not failed
MIRLAAIDVDGTLTDRDRLISTKAIESIRSAEKKGLTVSLLSGNVIPVVYALKIFLGINGPVFGENGGIMFDNDGSIKKFFSNEGTNKFLEEMSKRTSMRSILTNRWREASTGFDIDPEDVDYVRKEAESRGFVIFYSGYSWHLMNRGEDKAFAVNKLKEMYSLEYDEILVIGDSNNDMPMFQLPVRKACPANATDNIKAVSDFVSDYSYGEEIGQIFKHFELM | not failed
